What all share (assay): FACS
Experiment [1] concerns the target HK68 H3m2-cl9 + 10 + 11 + 12-tri (influenza A virus H3N2) (UniProt Q91MA7).
The target in experiment [2] is H3-mini2-cl9 + 10 + 11 + 12-GCN4 (influenza A virus H3N2) (UniProt O11283).
The target of experiment [3] is HK68 H3m2-cl9 + 10 + 11 + 12 (influenza A virus H3N2) (UniProt Q91MA7).
For experiment [4], the target named is HK68 H3m2-cl9 + 10 + 11 + 12-GCN4 (influenza A virus H3N2) (UniProt Q91MA7).
Experiment [5] addresses HK68 H3m2-cl9 + 10 + 12 (influenza A virus H3N2) (UniProt Q91MA7).
The target in experiment [6] is miniHA (A/Brisbane/59/2007) (influenza A virus H1N1) (UniProt A8C8J4).
Experiment [7] has as its target miniHA cluster1 (A/Brisbane/59/2007) (influenza A virus H1N1) (UniProt A8C8J4).
For experiment [8], the target named is mini2 cluster11 + 5 (A/Brisbane/59/2007) (influenza A virus H1N1) (UniProt A8C8J4).

As to CR8020 (antibody), the % positive cells in experiment [1] is over 15%; in experiment [2] it was 60%; in experiment [3] it was over 15%; in experiment [4] it was over 15%; in experiment [5], over 15%.

For the substance CR8043 (antibody), the % positive cells in experiment [1], in experiment [3], in experiment [4] and in experiment [5] was over 15% in each case.

Consider CR6328 (antibody), for which the % positive cells in experiment [6] was 1 to 3%; in experiment [7], 60%.

As for CR6254 (antibody), the % positive cells in experiment [6] is 1 to 3%; in experiment [7], 60%. In addition, the MFI relative to full-length HA in experiment [7] is 10%; in experiment [8] it was 50%.

(Values after patent publication US20140357845A1.)
